T1: recombinant RIM1 PDZ-domain (rat RIM1 residues 596-704) (rat, UniProt Q9JIR4 596-704, ^15N-labeled (for the HSQC spectra))
T1 sequence (looked up): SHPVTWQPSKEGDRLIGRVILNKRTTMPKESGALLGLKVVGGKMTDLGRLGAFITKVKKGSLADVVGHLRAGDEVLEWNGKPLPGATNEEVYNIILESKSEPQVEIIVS


Columns and labels:
[1] = target: recombinant RIM1 PDZ-domain (rat RIM1 residues 596-704) (rat) (UniProt Q9JIR4); test: ITC
[2] = target: T1, recombinant RIM1 PDZ-domain (rat RIM1 …); test: ITC

Row | Molecule | Kd [1] [µM] | stoichiometry N [1] | Kd [2] [µM] | stoichiometry N [2]
1 | C-terminus of N-type Ca^2+-channels (tested by HSQC and calorimetry) (from UniProt Q00975 1-2339) (domain or fragment) | 23.4 | 0.93 |  | 
2 | RHDAYSESEDDWC [peptide from the C-terminus of the P/Q-type Ca^2+-channel (residues RHDAYSESEDDWC)] |  |  | 10.3 ± 0.6 | 0.93
